Data published in patent publication US20230220589A1.

B1: upgraded binder after additional maturation round (SEQ ID NO: 62) (designed binder, not shown: small tags and cut ends; large carriers)
chain: TVPDRSEIAGKWYVVALASNTEFYLRGKDRVKSAMVRISFQGEDELKVSSAVPSPNGCYKVERTWKKTSDDGEVYNSRAAKLKVEVLDTDYKSYAVIYATRVKDRRTDHQMILYSRSPDVSPAATAIFRKLAGERNYTDEMVAMLPRQEECTVDEV
B2: engineered M44-A binder (SEQ ID NO: 42) (designed binder, not shown: small tags and cut ends; large carriers)
chain: QVSVQPNFQQDKFLGRWFVAGLASNSSWDREKVAALSGAKMVVAPATDGGLNVTRTMLRKNQCETYTGLLQPAGSLGSYSWRSPHPGSTGSESVVETDYDQYALVYGQGSKGPGEDLRAAALWSRTQTPRAELKEKFTAFSKAQGFTEDTIVFLPQTDKCMTEQ

How the values were obtained:
[1] = target: M17-modified S NTAA target peptides; assay: encoding assay; P2 A;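 also: fraction of recording tags encoded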
[2] = target: M44-modified A NTAA target peptides (M44-A-P2-peptide); assay: Gini coefficient of P2 tolerance from multiplex encoding heatmap

| Binder | encoding yield [1] | P2 score [2] |
| --- | --- | --- |
| B1 | 0.01 |  |
| B2 |  | 0.376 |
